Results reported in publication PMC6141617 (2018).

B1: 14-3-3β (purified alone) (natural protein)
chain: MTMDKSELVQKAKLAEQAERYDDMAAAMKAVTEQGHELSNEERNLLSVAYKNVVGARRSSWRVISSIEQKTERNEKKQQMGKEYREKIEAELQDICNDVLELLDKYLIPNATQPESKVFYLKMKGDYFRYLSEVASGDNKQTTVSNSQQAYQEAFEISKKEMQPTHPIRLGLALNFSVFYYEILNSPEKACSLAKTAFDEAIAELDTLNEESYKDSTLIMQLLRDNLTLWTSENQGDEG

Columns and labels:
GFP-ExoS^419-453 = assay: FP
14-3-3β (purified alone) = biological target: B1; assay: FP

For B1, the Kd (GFP-ExoS^419-453) was roughly 370 nM.

B2: GFP-ExoS^233–419 (domain or fragment)
chain: ADKALADGLVKRFGADAEKYLGRQPGGIHSDAEVMALGLYTGIHYADLNRALRQGQELDAGQKLIDQGMSAAFEKSGQAEQVVKTFRGTRGGDAFNAVEEGKVGHDDGYLSTSLNPGVARSFGQGTISTVFGRSGIDVSGISNYKNEKEILYNKETDMRVLLSASDEQGVTRRVLEEAALGEQSGHS
With B2 the Kd (14-3-3β (purified alone)) was greater than 100 nM.
